# From PMC3979721, “Biochemical Properties of Ectoine Hydroxylases from Extremophiles and Their Wider Taxonomic Distribution among Microorganisms” (PLoS ONE, 2014)
# B1: EctD from P. stutzeri (Stutzerimonas stutzeri A1501) (protein)
# chain: MQADLYPSRQEDQPSWQERLDPVVYRSDLENAPIAAELVERFERDGYLVIPNLFSADEVALFRAELERMRQDPAVAGSGKTIKEPDSGAIRSVFAIHKDNELFARVAADERTAGIARFILGGDLYVHQSRMNFKPGFTGKEFYWHSDFETWHIEDGMPRMRCLSCSILLTDNEPHNGPLMLMPGSHKHYVRCVGATPENHYEKSLRKQEIGIPDQNSLSELASRFGIDCATGPAGSVVFFDCNTMHGSNGNITPSARSNLFYVYNHVDNAVQAPFCEQKPRPAFVAERENFKPLDIRPQQYL
# notes: homodimer
# B2: Sphingopyxis alaskensis EctD protein (ectoine hydroxylase) (enzyme, UniProt Q1GNW5 1-306, looked up)
# chain: MQDLYPSRQRADAEMRPRLDPVVHSEWTNDAPISARQAAAFDRDGYIVLEDIFSADEVAFLQKAAGNLLADPAALDADTIVTEPQSNEIRSIFEIHAQSPVMARLAADARLADVARFLLGDEVYIHQSRLNYKPGFKGREFYWHSDFETWHVEDGMPRMRALSMSVLLAENTPHNGPLMVIPGSHRTYLTCVGETPDDHYLSSLKKQEYGVPDEESLAELAHRHGIVAPTGKPGTVILFDCNLMHGSNGNITPFPRANAFLVYNAVSNRLEKPFGVEKPRPWFLARRGEPAALRVERGPLVETVPA
# notes: Ectoine hydroxylase EctD of Sphingopyxis alaskensis; ectD gene amplified from chromosomal DNA; 35.29 kDa with the nine-residue Strep-tag II peptide; Contains about 0.87-0.96 mol iron per mol protein; also called EctD from S. alaskensis; S. alaskensis enzyme; not shown: Strep-tag II, C-terminal, kept
# B3: EctD from A. cryptum (Acidiphilium cryptum JF-5) (protein)
# chain: MDDLYPSRREPTPSLLPRHDPVVHGRWAPGAPLSDEQTRFYDTNGYLVLENVFDPAEIALLQSGSMDLLANPAGLDRETIITERGSDEVRSIFAIHAQNELLGRLAADSRIAGVARFLLDDDVYIHQSRLNYKPGFDGKEFYWHSDFETWHVEDGMPRMRALSMSILLAENTANNGPLMVIPGSHRKYLTCVGETPENHYRSSLKKQEYGVPDREMLTALASDHGIVAPTGKAGTVVLFDCNTMHGSNGNITPFPRSNAFFVFNAKANSLVEPFGPKSRRPDFIADRAFTTVDIVKGPLVRRERAA
# notes: homodimer
# B4: EctD from V. salexigens (VsEctD) (Virgibacillus salexigens) (protein)
# chain: MEDLYPSRQNNQPKILKRKDPVIYTDRSKDNQAPITKEQLDSYEKNGFLQIKNFFSEDEVIDMQKAIFELQDSIKDVASDKVIREPESNDIRSIFHVHQDDNYFQDVANDKRILDIVRHLLGSDVYVHQSRINYKPGFKGKEFDWHSDFETWHVEDGMPRMRAISVSIALSDNYSFNGPLMLIPGSHNYFVSCVGETPDNNYKESLKKQKLGVPDEESLRELTRIGGGISVPTGKAGSVTLFESNTMHGSTSNITPYPRNNLFMVYNSVKNRLVEPFSGGEKRPEYIAVREKQPVYSAVN
# notes: homodimer
# B5: EctD from H. elongata (Halomonas elongata DSM 2581) (protein)
# chain: MSVQTSSNRPLPQANLHIATETPEADSRIRSAPRPGQDPYPTRLSEPLDLPWLNRREPVVKGEEADGPLSAAQLDTFERQGFIFEPDFLKGEELEALRHELNALLARDDFRGRDFAITEPQGNEIRSLFAVHYLSRVFSRLANDERLMGRARQILGGEPYVHQSRINYKPGFEGKGFNWHSDFETWHAEDGMPAMHAVSASIVLTDNHTFNGPLMLVPGSHRVFVPCLGETPEDHHRQSLKTQEFGVPSRQALRELIDRHGIEAPTGAAGGLLLFDCNTLHGSNANMSPDPRSNAFFVYNRRDNRCVEPYAASKRRPRFLAHEPDEAWSPDG
# notes: homodimer
# Experiments:
# [1] = substrate: O=C(O)CCC(=O)C(=O)O; assay: HPLC assay of 5-hydroxyectoine formation; type: biochemical, Stutzerimonas stutzeri; details: apparent, co-substrate, with ectoine, Fe(II), O2, pH 7.5, 35 °C
# Description: (§1) HPLC assay of 5-hydroxyectoine formation on EctD from P. stutzeri
# [2] = substrate: CC1=N[C@H](C(=O)O)CCN1; assay: HPLC assay of 5-hydroxyectoine formation; type: biochemical, Stutzerimonas stutzeri; details: apparent, with 2-oxoglutarate, Fe(II), O2, optimum pH 7.5, 35 °C and optimised salt, kcat per homodimer
# Description: as §1
# [3] = biological target: the molecule itself; assay: SEC; 1 ml of protein at 5 mg/ml on a HiLoad 16/600 Superdex 200 pg column, 20 mM TES-buffer containing 150 NaCl; size against standards of 29, 66 and 150 kDa (Fig. S6)
# [4] = substrate: O=C(O)CCC(=O)C(=O)O; assay: HPLC assay of 5-hydroxyectoine formation; type: biochemical, Sphingopyxis alaskensis; details: apparent, co-substrate, with ectoine, Fe(II), O2, pH 8.0, 40 °C
# Description: (§2) HPLC assay of 5-hydroxyectoine formation on EctD from S. alaskensis
# [5] = substrate: CC1=N[C@H](C(=O)O)CCN1; assay: HPLC assay of 5-hydroxyectoine formation; type: biochemical, Sphingopyxis alaskensis; details: apparent, with 2-oxoglutarate, Fe(II), O2, optimum pH 8.0, 40 °C and optimised salt, kcat per homodimer
# Description: as §2
# [6] = substrate: O=C(O)CCC(=O)C(=O)O; assay: HPLC assay of 5-hydroxyectoine formation; type: biochemical, Acidiphilium cryptum; details: apparent, co-substrate, with ectoine, Fe(II), O2, pH 8.0, 32 °C
# Description: (§3) HPLC assay of 5-hydroxyectoine formation on EctD from A. cryptum
# [7] = substrate: CC1=N[C@H](C(=O)O)CCN1; assay: HPLC assay of 5-hydroxyectoine formation; type: biochemical, Acidiphilium cryptum; details: apparent, with 2-oxoglutarate, Fe(II), O2, optimum pH 8.0, 32 °C and optimised salt, kcat per homodimer
# Description: as §3
# [8] = substrate: O=C(O)CCC(=O)C(=O)O; assay: HPLC assay of 5-hydroxyectoine formation; type: biochemical, Virgibacillus salexigens; details: apparent, co-substrate, varied 0-50 mM, with ectoine, Fe(II), O2, pH 7.5, 32 °C
# Description: (§4) HPLC assay of 5-hydroxyectoine formation on EctD from V. salexigens (VsEctD)
# [9] = substrate: CC1=N[C@H](C(=O)O)CCN1; assay: HPLC assay of 5-hydroxyectoine formation; type: biochemical, Virgibacillus salexigens; details: apparent, with 2-oxoglutarate, Fe(II), O2, TES buffer, optimum pH 7.5, 32 °C and optimised salt, kcat per homodimer
# Description: as §4
# [10] = substrate: O=C(O)CCC(=O)C(=O)O; assay: HPLC assay of 5-hydroxyectoine formation; type: biochemical, Halomonas elongata; details: apparent, co-substrate, with ectoine, Fe(II), O2, pH 8.0, 32 °C
# Description: (§5) HPLC assay of 5-hydroxyectoine formation on EctD from H. elongata
# [11] = substrate: CC1=N[C@H](C(=O)O)CCN1; assay: HPLC assay of 5-hydroxyectoine formation; type: biochemical, Halomonas elongata; details: apparent, with 2-oxoglutarate, Fe(II), O2, optimum pH 8.0, 32 °C and optimised salt, kcat per homodimer
# Description: as §5
protein,measurement,setting,value
B1,Km,[1],4.6 ± 0.5 mM
same,Km,[2],6.2 ± 0.4 mM
same,kcat,[2],8.9 s⁻¹
same,kcat/Km,[2],1440 M⁻¹ s⁻¹
B2,stoichiometry N,[3],2
same,Km,[4],2.7 ± 0.3 mM
same,Km,[5],9.8 ± 0.5 mM
same,kcat,[5],1.2 s⁻¹
same,kcat/Km,[5],120 M⁻¹ s⁻¹
B3,Km,[6],4.1 ± 0.4 mM
same,Km,[7],10.0 ± 0.6 mM
same,kcat,[7],3.4 s⁻¹
same,kcat/Km,[7],340 M⁻¹ s⁻¹
B4,Km,[8],4.9 ± 0.3 mM
same,Km,[9],5.9 ± 0.3 mM
same,kcat,[9],7.7 s⁻¹
same,kcat/Km,[9],1310 M⁻¹ s⁻¹
B5,Km,[10],4.8 ± 0.4 mM
same,kcat,[10],2.8 s⁻¹
same,kcat/Km,[10],490 M⁻¹ s⁻¹
same,Km,[11],5.7 ± 0.6 mM
same,kcat,[11],2.8 s⁻¹
same,kcat/Km,[11],490 M⁻¹ s⁻¹
